Test results taken from IntAct's records for PubMed 19665976.

B1: Atlastin-1 (Homo sapiens), Q8WXF7 (parent)
chain: MAKNRRDRNSWGGFSEKTYEWSSEEEEPVKKAGPVQVLIVKDDHSFELDETALNRILLSEAVRDKEVVAVSVAGAFRKGKSFLMDFMLRYMYNQESVDWVGDYNEPLTGFSWRGGSERETTGIQIWSEIFLINKPDGKKVAVLLMDTQGTFDSQSTLRDSATVFALSTMISSIQVYNLSQNVQEDDLQHLQLFTEYGRLAMEETFLKPFQSLIFLVRDWSFPYEFSYGADGGAKFLEKRLKVSGNQHEELQNVRKHIHSCFTNISCFLLPHPGLKVATNPNFDGKLKEIDDEFIKNLKILIPWLLSPESLDIKEINGNKITCRGLVEYFKAYIKIYQGEELPHPKSMLQATAEANNLAAVATAKDTYNKKMEEICGGDKPFLAPNDLQTKHLQLKEESVKLFRGVKKMGGEEFSRRYLQQLESEIDELYIQYIKHNDSKNIFHAARTPATLFVVIFITYVIAGVTGFIGLDIIASLCNMIMGLTLITLCTWAYIRYSGEYRELGAVIDQVAAALWDQGSTNEALYKLYSAAATHRHLYHQAFPTPKSESTEQSEKKKM
partner: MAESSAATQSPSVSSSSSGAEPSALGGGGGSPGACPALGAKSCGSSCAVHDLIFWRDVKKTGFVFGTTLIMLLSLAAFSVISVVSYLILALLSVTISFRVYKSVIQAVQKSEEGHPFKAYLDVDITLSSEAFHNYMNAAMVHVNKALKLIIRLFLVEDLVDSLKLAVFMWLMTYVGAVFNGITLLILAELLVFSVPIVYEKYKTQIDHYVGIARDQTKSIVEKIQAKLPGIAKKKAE

Variants of: B1
Settings: with Rtn3, Q9ES97-3

Variant	effect of a mutation on the interaction
MAKNRRDRNSWGGFSEKTYEWSSEEEEPVKKAGPVQVLIVKDDHSFELDETALNRILLSEAVRDKEVVAVSVAGAFRKGASFLMDFMLRYMYNQESVDWVGDYNEPLTGFSWRGGSERETTGIQIWSEIFLINKPDGKKVAVLLMDTQGTFDSQSTLRDSATVFALSTMISSIQVYNLSQNVQEDDLQHLQLFTEYGRLAMEETFLKPFQSLIFLVRDWSFPYEFSYGADGGAKFLEKRLKVSGNQHEELQNVRKHIHSCFTNISCFLLPHPGLKVATNPNFDGKLKEIDDEFIKNLKILIPWLLSPESLDIKEINGNKITCRGLVEYFKAYIKIYQGEELPHPKSMLQATAEANNLAAVATAKDTYNKKMEEICGGDKPFLAPNDLQTKHLQLKEESVKLFRGVKKMGGEEFSRRYLQQLESEIDELYIQYIKHNDSKNIFHAARTPATLFVVIFITYVIAGVTGFIGLDIIASLCNMIMGLTLITLCTWAYIRYSGEYRELGAVIDQVAAALWDQGSTNEALYKLYSAAATHRHLYHQAFPTPKSESTEQSEKKKM [K80A]	decreasing interaction
